The source of these data is the supplement of paper PMC5998384.

The test system of data set [1] is HeLa Kyoto. Put plainly: solubility change mitosis vs G1/S (difference of NP-40 vs SDS log2 ratios) (log2 ratio difference); higher = more soluble in mitosis.
The test system of data set [2] is HeLa Kyoto. The data set is described as follows: thermal stability score vs G1/S (z-score of summed log2 fold changes over temperatures); higher = more thermally stable than in G1/S.
The test system of data set [3] is HeLa Kyoto. Put plainly: solubility in G1/S (NP-40 vs SDS abundance) (log2 ratio); higher = more soluble. The following applies: cell cycle stage: G1/S.
The mark [4] stands for this setting: cell cycle stage: early G1 (4.5 h after nocodazole release).
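Wherever solubility change mitosis vs G1/S (difference of NP-40 vs SDS log2 ratios) is given: synchronized HeLa Kyoto cells (double thymidine block for G1/S, nocodazole release for mitosis), protein amounts in NP-40 versus SDS lysates quantified by mass spectrometry, three biological replicates.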
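Wherever solubility in G1/S (NP-40 vs SDS abundance) is given: HeLa Kyoto cells arrested at G1/S by double thymidine block, proteins quantified by TMT10plex mass spectrometry in mild NP-40 versus SDS extracts, three biological replicates.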
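Wherever thermal stability score vs G1/S (z-score of summed log2 fold changes over temperatures) is given: synchronized HeLa Kyoto cells, proteins quantified by TMT10plex mass spectrometry, three biological replicates, mitosis taken 0.5 h after nocodazole release, G1/S directly after double thymidine block.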

For the sequence “MSQGILSPPAGLLSDDDVVVSPMFESTAADLGSVVRKNLLSDCSVVSTSLEDKQQVPSEDSMEKVKVYLRVRPLLPSELERQEDQGCVRIENVETLVLQAPKDSFALKSNERGIGQATHRFTFSQIFGPEVGQASFFNLTVKEMVKDVLKGQNWLIYTYGVTNSGKTHTIQGTIKDGGILPRSLALIFNSLQGQLHPTPDLKPLLSNEVIWLDSKQIRQEEMKKLSLLNGGLQEEELSTSLKRSVYIESRIGTSTSFDSGIAGLSSISQCTSSSQLDETSHRWAQPDTAPLPVPANIRFSIWISFFEIYNELLYDLLEPPSQQRKRQTLRLCEDQNGNPYVKDLNWIHVQDAEEAWKLLKVGRKNQSFASTHLNQNSSRSHSIFSIRILHLQGEGDIVPKISELSLCDLAGSERCKDQKSGERLKEAGNINTSLHTLGRCIAALRQNQQNRSKQNLVPFRDSKLTRVFQGFFTGRGRSCMIVNVNPCASTYDETLHVAKFSAIASQLVHAPPMQLGFPSLHSFIKEHSLQVSPSLEKGAKADTGLDDDIENEADISMYGKEELLQVVEAMKTLLLKERQEKLQLEMHLRDEICNEMVEQMQQREQWCSEHLDTQKELLEEMYEEKLNILKESLTSFYQEEIQERDEKIEELEALLQEARQQSVAHQQSGSELALRRSQRLAASASTQQLQEVKAKLQQCKAELNSTTEELHKYQKMLEPPPSAKPFTIDVDKKLEEGQKNIRLLRTELQKLGESLQSAERACCHSTGAGKLRQALTTCDDILIKQDQTLAELQNNMVLVKLDLRKKAACIAEQYHTVLKLQGQVSAKKRLGTNQENQQPNQQPPGKKPFLRNLLPRTPTCQSSTDCSPYARILRSRRSPLLKSGPFGKKY [KIF20A]”, in the data set with HeLa Kyoto [1], the “solubility change mitosis (log2)” value is -0.0791. Besides, the thermal stability score in the data set with HeLa Kyoto [2] (setting [4]) stood at 0.449; in the data set with HeLa Kyoto [2] (cell cycle stage: mitosis) it was 3.61. The “solubility in G1/S (log2)” value in the data set with HeLa Kyoto [3] was -0.582.

As to “MKGFKLSCTASNSNRSTPACSPILRKRSRSPTPQNQDGDTMVEKGSDHSSDKSPSTPEQGVQRSCSSQSGRSGGKNSKKSQSWYNVLSPTYKQRNEDFRKLFKQLPDTERLIVDYSCALQRDILLQGRLYLSENWICFYSNIFRWETLLTVRLKDICSMTKEKTARLIPNAIQVCTDSEKHFFTSFGARDRTYMMMFRLWQNALLEKPLCPKELWHFVHQCYGNELGLTSDDEDYVPPDDDFNTMGYCEEIPVEENEVNDSSSKSSIETKPDASPQLPKKSITNSTLTSTGSSEAPVSFDGLPLEEEALEGDGSLEKELAIDNIMGEKIEMIAPVNSPSLDFNDNEDIPTELSDSSDTHDEGEVQAFYEDLSGRQYVNEVFNFSVDKLYDLLFTNSPFQRDFMEQRRFSDIIFHPWKKEENGNQSRVILYTITLTNPLAPKTATVRETQTMYKASQESECYVIDAEVLTHDVPYHDYFYTINRYTLTRVARNKSRLRVSTELRYRKQPWGLVKTFIEKNFWSGLEDYFRHLESELAKTESTYLAEMHRQSPKEKASKTTTVRRRKRPHAHLRVPHLEEVMSPVTTPTDEDVGHRIKHVAGSTQTRHIPEDTPNGFHLQSVSKLLLVISCVICFSLVLLVILNMMLFYKLWMLEYTTQTLTAWQGLRLQERLPQSQTEWAQLLESQQKYHDTELQKWREIIKSSVMLLDQMKDSLINLQNGIRSRDYTSESEEKRNRYH [GRAMD1B]”, the “solubility change mitosis (log2)” value in the data set with HeLa Kyoto [1] amounted to 0.151. Further, the thermal stability score with HeLa Kyoto [2] (setting [4]) was -0.0752; with HeLa Kyoto [2] (cell cycle stage: mitosis), -0.742. Also, the “solubility in G1/S (log2)” value in the data set with HeLa Kyoto [3] is -0.0228.

Consider “MLLPWATSAPGLAWGPLVLGLFGLLAASQPQAVPPYASENQTCRDQEKEYYEPQHRICCSRCPPGTYVSAKCSRIRDTVCATCAENSYNEHWNYLTICQLCRPCDPVMGLEEIAPCTSKRKTQCRCQPGMFCAAWALECTHCELLSDCPPGTEAELKDEVGKGNNHCVPCKAGHFQNTSSPSARCQPHTRCENQGLVEAAPGTAQSDTTCKNPLEPLPPEMSGTMLMLAVLLPLAFFLLLATVFSCIWKSHPSLCRKLGSLLKRRPQGEGPNPVAGSWEPPKAHPYFPDLVQPLLPISGDVSPVSTGLPAAPVLEAGVPQQQSPLDLTREPQLEPGEQSQVAHGTNGIHVTGGSMTITGNIYIYNGPVLGGPPGPGDLPATPEPPYPIPEEGDPGPPGLSTPHQEDGKAWHLAETEHCGATPSNRGPRNQFITHD [LTBR]”, for which the “solubility change mitosis (log2)” value with HeLa Kyoto [1] came out at 0.703. In addition, the results for the thermal stability score in the data set with HeLa Kyoto [2] (setting [4]) and with HeLa Kyoto [2] (cell cycle stage: mitosis) were -2.45 and -1.87, respectively. Also, in the data set with HeLa Kyoto [3], the “solubility in G1/S (log2)” value was -0.758.

As for “MPSEGRCWETLKALRSSDKGRLCYYRDWLLRREDVLEECMSLPKLSSYSGWVVEHVLPHMQENQPLSETSPSSTSASALDQPSFVPKSPDASSAFSPASPATPNGTKGKDESQHTESMVLQSSRGIKVEGCVRMYELVHRMKGTEGLRLWQEEQERKVQALSEMASEQLKRFDEWKELKQHKEFQDLREVMEKSSREALGHQEKLKAEHRHRAKILNLKLREAEQQRVKQAEQERLRKEEGQIRLRALYALQEEMLQLSQQLDASEQHKALLKVDLAAFQTRGNQLCSLISGIIRASSESSYPTAESQAEAERALREMRDLLMNLGQEITRACEDKRRQDEEEAQVKLQEAQMQQGPEAHKEPPAPSQGPGGKQNEDLQVKVQDITMQWYQQLQDASMQCVLTFEGLTNSKDSQAKKIKMDLQKAATIPVSQISTIAGSKLKEIFDKIHSLLSGKPVQSGGRSVSVTLNPQGLDFVQYKLAEKFVKQGEEEVASHHEAAFPIAVVASGIWELHPRVGDLILAHLHKKCPYSVPFYPTFKEGMALEDYQRMLGYQVKDSKVEQQDNFLKRMSGMIRLYAAIIQLRWPYGNRQEIHPHGLNHGWRWLAQILNMEPLSDVTATLLFDFLEVCGNALMKQYQVQFWKMLILIKEDYFPRIEAITSSGQMGSFIRLKQFLEKCLQHKDIPVPKGFLTSSFWRS [GLE1]”, the “solubility change mitosis (log2)” value with HeLa Kyoto [1] came to 0.773. In addition, the thermal stability score in the data set with HeLa Kyoto [2] (setting [4]) was determined as 0.568; with HeLa Kyoto [2] (cell cycle stage: mitosis) it was 0.433. Also, the “solubility in G1/S (log2)” value in the data set with HeLa Kyoto [3] was -0.966.

Take “MAMQMQLEANADTSVEEESFGPQPISRLEQCGINANDVKKLEEAGFHTVEAVAYAPKKELINIKGISEAKADKILAEAAKLVPMGFTTATEFHQRRSEIIQITTGSKELDKLLQGGIETGSITEMFGEFRTGKTQICHTLAVTCQLPIDRGGGEGKAMYIDTEGTFRPERLLAVAERYGLSGSDVLDNVAYARAFNTDHQTQLLYQASAMMVESRYALLIVDSATALYRTDYSGRGELSARQMHLARFLRMLLRLADEFGVAVVITNQVVAQVDGAAMFAADPKKPIGGNIIAHASTTRLYLRKGRGETRICKIYDSPCLPEAEAMFAINADGVGDAKD [RAD51]”: the “solubility change mitosis (log2)” value in the data set with HeLa Kyoto [1] was -0.238. Further, the thermal stability score is -1.12 with HeLa Kyoto [2] (setting [4]) and -1.89 in the data set on HeLa Kyoto [2] (cell cycle stage: mitosis). For the same sequence, the “solubility in G1/S (log2)” value in the data set with HeLa Kyoto [3] is -0.073.
